In patent publication USRE48805E1, “Method for cancer targeting treatment and detection of arginine using albumin-binding arginine deiminase fusion protein” (Vision Global Holdings Ltd., priority 2013, dated 2021):

What was measured:
N=C(N)NCCC[C@H](N)C(=O)O [1] = assay: Enzyme kinetics (Km), citrulline detection by DAM-TSC assay; format: biochemical, Mycoplasma arginini; conditions: other: substrate arginine (62.5-2000 μM), pH 7.4
Method: (§1) To determine the enzyme activity for wild-type ADI and AAD fusion protein in the present invention, the diacetyl monoxime (DAM)-thiosemicarbazide (TSC) assay for citrulline detection is used. The reaction is shown below. L-Arginine argininedeiminase(ADI)orAADfusion>L-Citrulline+Ammonia
(§2) This assay is run by adding sample to a color reagent, which is made by mixing acidic ferric chloride solution with DAM-TSC solution. […] The reaction mixture is heated at 100° C. for […] to develop the color and read at 540 nm (light path=1 cm). A standard curve is constructed using various concentrations of citrulline. One unit of the ADI native enzyme is the amount of enzyme activity that converts 1 μmol of arginine to 1 μmol of citrulline per minute at 37° C. under the assay conditions. The specific activities of wild-type ADI, pegylated ADI (Ensor et al., Cancer Res. 62:5443-5450, 2002) and AAD fusion protein in the present invention are about 20, 15 and 19 U/mg (at pH 7.4, physiological pH), respectively. The specific activities for wild-type ADI and AAD fusion protein at different pH values (in a range from pH 5.5 to 9.5) are also determined, and the optimum pH is at 6.5.
(§3) The Michaelis constant Km is the substrate concentration at which the reaction rate is at half-maximum, and is an inverse measure of the substrate's affinity for the enzyme. […]

N=C(N)NCCC[C@H](N)C(=O)O [2] = assay: as above; format: biochemical, Bacillus cereus; conditions: other: substrate arginine (62.5-2000 μM), pH 7.4
Method: as §1, §2, §3

Substance | Km (N=C(N)NCCC[C@H](N)C(=O)O [1]) [µM] | Km (N=C(N)NCCC[C@H](N)C(=O)O [2]) [µM]
AAD fusion protein His-ABD-PolyN-ADI (FIG. 3E), SEQ ID NO: 40, ADI originated from Mycoplasma arginini (Mycoplasmopsis arginini) | 4.1 | –
AAD fusion protein His-ABD-PolyN-bcADI (FIG. 3F), SEQ ID NO: 41, ADI originated from Bacillus cereus (Bacillus cereus AH820) | – | 132
